According to patent publication US20230048960A1 (University of Washington, published 2023):
Square brackets hold non-standard residues; d marks the D form.

T1: islet amyloid polypeptide (IAPP) (UniProt P10997 34-70, limits assumed)
T1 peptide (looked up): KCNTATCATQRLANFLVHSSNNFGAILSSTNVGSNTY

B1: AP090 (peptide)
peptide: Ac-RGE[dM]N[dL]S[dW]MNEYSGW[dT]M[dN]L[dK]MGR-NH2
SMILES: CSCC[C@H](NC(=O)[C@@H](CCCCN)NC(=O)[C@H](CC(C)C)NC(=O)[C@@H](CC(N)=O)NC(=O)[C@H](CCSC)NC(=O)[C@H](NC(=O)[C@H](Cc1c[nH]c2ccccc12)NC(=O)CNC(=O)[C@H](CO)NC(=O)[C@H](Cc1ccc(O)cc1)NC(=O)[C@H](CCC(=O)O)NC(=O)[C@H](CC(N)=O)NC(=O)[C@H](CCSC)NC(=O)[C@@H](Cc1c[nH]c2ccccc12)NC(=O)[C@H](CO)NC(=O)[C@@H](CC(C)C)NC(=O)[C@H](CC(N)=O)NC(=O)[C@@H](CCSC)NC(=O)[C@H](CCC(=O)O)NC(=O)CNC(=O)[C@H](CCCNC(=N)N)NC(C)=O)[C@H](C)O)C(=O)NCC(=O)N[C@@H](CCCNC(=N)N)C(N)=O
B2: AP526m (peptide)
peptide: Ac-[dR]G[dE]M[dN]L[dS]W[dM][dN][dE][dY][dS]G[dW]T[dM]N[dC]K[dM]G[dR]-NH2
SMILES: CSCC[C@H](NC(=O)[C@@H](CCC(=O)O)NC(=O)CNC(=O)[C@@H](CCCNC(=N)N)NC(C)=O)C(=O)N[C@H](CC(N)=O)C(=O)N[C@@H](CC(C)C)C(=O)N[C@H](CO)C(=O)N[C@@H](Cc1c[nH]c2ccccc12)C(=O)N[C@H](CCSC)C(=O)N[C@H](CC(N)=O)C(=O)N[C@H](CCC(=O)O)C(=O)N[C@H](Cc1ccc(O)cc1)C(=O)N[C@H](CO)C(=O)NCC(=O)N[C@H](Cc1c[nH]c2ccccc12)C(=O)N[C@H](C(=O)N[C@H](CCSC)C(=O)N[C@@H](CC(N)=O)C(=O)N[C@H](CS)C(=O)N[C@@H](CCCCN)C(=O)N[C@H](CCSC)C(=O)NCC(=O)N[C@H](CCCNC(=N)N)C(N)=O)[C@@H](C)O
B3: AP527m (peptide)
peptide: Ac-[dR]G[dE]M[dN]L[dS]W[dM][dN][dE][dY][dY]G[dW]T[dM]N[dM]K[dC]G[dR]-NH2
SMILES: CSCC[C@H](NC(=O)[C@@H](CCC(=O)O)NC(=O)CNC(=O)[C@@H](CCCNC(=N)N)NC(C)=O)C(=O)N[C@H](CC(N)=O)C(=O)N[C@@H](CC(C)C)C(=O)N[C@H](CO)C(=O)N[C@@H](Cc1c[nH]c2ccccc12)C(=O)N[C@H](CCSC)C(=O)N[C@H](CC(N)=O)C(=O)N[C@H](CCC(=O)O)C(=O)N[C@H](Cc1ccc(O)cc1)C(=O)N[C@H](Cc1ccc(O)cc1)C(=O)NCC(=O)N[C@H](Cc1c[nH]c2ccccc12)C(=O)N[C@H](C(=O)N[C@H](CCSC)C(=O)N[C@@H](CC(N)=O)C(=O)N[C@H](CCSC)C(=O)N[C@@H](CCCCN)C(=O)N[C@H](CS)C(=O)NCC(=O)N[C@H](CCCNC(=N)N)C(N)=O)[C@@H](C)O
B4: AP527d (BMOE) (peptide)
peptide: Ac-[dR]G[dE]M[dN]L[dS]W[dM][dN][dE][dY][dY]G[dW]T[dM]N[dM]K[dC]G[dR]-NH2
modifications: also: homodimer linked by BMOE, linker at 21 via BMOE, other end not in the chain
B5: AP527d (MalPEG1) (peptide)
peptide: Ac-[dR]G[dE]M[dN]L[dS]W[dM][dN][dE][dY][dY]G[dW]T[dM]N[dM]K[dC]G[dR]-NH2
modifications: also: homodimer linked by MalPEG1, linker at 21 via MalPEG1, other end not in the chain

Target: T1, islet amyloid polypeptide (IAPP)
Assay: cell-based or functional assay

% inhibition of IAPP amyloid formation, Ratio AP:IAPP 1:1 [%] | % inhibition of IAPP amyloid formation, Ratio AP:IAPP 4:1 [%] | % inhibition of IAPP amyloid formation, Ratio AP:IAPP 10:1 [%] | Binder
40 | 42 | 65 | B1

The binders below were run against T2, Aβ42 (UniProt P05067 672-713) (assay: cell-based or functional assay).
T2 sequence (P05067 672-713 limits assumed): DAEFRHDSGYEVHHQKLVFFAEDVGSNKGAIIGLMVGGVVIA

% inhibition of fibril formation (ThT), AP:Aβ42 1:1 [%] | % inhibition of fibril formation (ThT), AP:Aβ42 1:10 [%] | % inhibition of fibril formation (ThT), AP:Aβ42 1:100 [%] | Binder
63.2 | 12.4 | 0 | B2
100 | 96.2 | 86.4 | Ac-[dR]G[dE]M[dN]L[dS]W[dM][dN][dE][dY][dY]G[dW]T[dM]N[dM]K[dC]G[dR]-NH2 (also: homodimer: D-Cys21 disulfide-bonded to D-Cys21 of other copy) [AP527d]
69.7 | 0 |  | B1
99.7 | 98.3 | 89.2 | Ac-RGE[dM]N[dL]S[dW]M[dN][dE][dY][dY]GW[dT]M[dN]M[dK]CGR-NH2 (also: homodimer: Cys21 disulfide-bonded to Cys21 of other copy) [AP525d]
54.2 | 14.3 | 0 | B3

Target: T2, Aβ42
Assay: cell-based or functional assay
Remark: another data set of the same source

% Inhibition 1:10 (AP peptide:Abeta42), ThT assay [%] | Binder
80 | B4
96 | Ac-[dR]G[dE]M[dN]L[dS]W[dM][dN][dE][dY][dY]G[dW]T[dM]N[dM]K[dC]G[dR]-NH2 (also: homodimer: D-Cys21 disulfide-bonded to D-Cys21 of other copy) [AP527d]
14 | B3
75 | B5
